Test results as given in the DeepSol protein solubility set.

Test: soluble on expression in E. coli; label from the status in PepcDB or PDB records

Sequence	soluble on expression in E. coli
GPLGSSMEDHDDHLRRKFMEFPYVSPTRKQLMVDLMSTVENRLQSQLLPCNLPPDVRNFNNPNGSAEASLHIRSGDKSSPIDFVIGSWIHCKIPTGVSLNITSISGFLNSSTKAPNFVVELIQSSSKSLVLILDLPHRKDLVLNPDYLKEYYQDTALDSHRQSLLKLPEVNPYVSPSLFVRSAFSPTASMLKIDAEEEDKLEEILRDHVSPAAKEVLEVWLERCVKEEEEKIVVGEEERMELERRDKSFRRKSIEDDLDLQFPRMFGEEVSSRVVHAIKEAFGVL	soluble
TTKKRVFHFGKGKSEGNKTMKELLGGKGANLAEMASIGLSVPPGFTVSTEACQQYQDAGCALPAGLWAEIVDGLQWVEEYMGATLGDPQRPLLLSVRSGAAVSMPGMMDTVLNLGLNDEVAAGLAAKSGERFAYDSFRRFLDMFGNVVMDIPRSLFEEKLEHMKESKGLKNDTDLTASDLKELVGQYKEVYLSAKGEPFPSDPKKQLELAVLAVFNSWESPRAKKYRSINQITGLRGTAVNVQCMVFGNMGNTSGTGVLFTRNPNTGEKKLYGEFLVNAQGEDVVAGIRTPEDLDAMKNLMPQAYDELVENCNILESHYKEMQDIEFTVQENRLWMLQCRTGKRTGKSAVKIAVDMVNEGLVEPRSAIKMVEPGHLDQLLHPQFENPSAYKDQVIATGLPASPGAAVGQVVFTAEDAEAWHSQGKAAILVRAETSPEDVGGMHAAVGILTERGGMTSHAAVVARGWGKCCVSGCSGIRVNDAEKLVTIGGHVLREGEWLSLNGSTGEVILGKQPLSPPALSGDLGTFMAWVDDVRKLKVLANADTPDDALTARNNGAQGIGLCRTEHMFFASDERIKAVRQMIMAPTLELRQQALDRLLPYQRSDFEGIFRAMDGLPVTIRLLDPPLHEFLPEGNIEDIVSELCAETGANQEDALARIEKLSEVNPMLGFRGCRLGISYPELTEMQARAIFEAAIAMTNQGVQVFPEIMVPLVGTPQELGHQVTLIRQVAEKVFANVGKTIGYKVGTMIEIPRAALVADEIAEQAEFFSFGTNDLTQMTFGYSRDDVGKFIPVYLAQGILQHDPFEVLDQRGVGELVKFATERGRKARPNLKVGICGEHGGEPSSVAFFAKAGLDYVSCSPFRVPIARLAAAQVLV	soluble
MLTGLKIAVIGGDARQLEIIRKLTEQQADIYLVGFDQLDHGFTGAVKCNIDEIPFQQIDSIILPVSATTGEGVVSTVFSNEEVVLKQDHLDRTPAHCVIFSGISNAYLENIAAQAKRKLVKLFERDDIAIYNSIPTVEGTIMLAIQHTDYTIHGSQVAVLGLGRTGMTIARTFAALGANVKVGARSSAHLARITEMGLVPFHTDELKEHVKDIDICINTIPSMILNQTVLSSMTPKTLILDLASRPGGTDFKYAEKQGIKALLAPGLPGIVAPKTAGQILANVLSKLLAEIQAEEGK	soluble
MPESTNFTEEITQWVESLPNWGKAAVAGGVALAVYIPYKFMATRPRKSPLNENWKPDVVYLYQFPRARLLPNLSPFCMKVETWLRMSDITYEIPPCSLSTRSQEGTLPFVELNGKEYYDSSFILRDIDQVIKHTSLDDHLSAEQKATSRAFEAMSEKSLAISACYYRMENVEKMLDQFDPKLFGIFGFLFKLIGSRTYVSALLRRITGSDIGFHSREDIINIGSEDLKAISKYLGNKHYFHGFKPTKVDACIFSHLCQIYYAPYTSEHRDLIDGECKNLAEYVERIKNRFYPDWDDVTTKFSTDTSNWKKRHVARNGNGKH	not soluble
MSESCNSLTVVFTDSPKIDDHLFAKAIRWADQNPDDTIFWARRKALERIPEIDVEFSMKAGALRRIRFGYSSKKLLQGCIDIALKASIGSEVAAIFCSMSIPQDCPELGCLLAALANFCNVDDGRAVVVIDLRDDNDDEKQEGVEESDPFENANFLEEEIVENPKELSNEPRETQTQEEFLEKLKRVASIYTKNVLLFDGNEEKFSNCF	not soluble
MISILRRGLLVLLAAFPLLALAVQTPHEVVQSTTNELLGDLKANKEQYKSNPNAFYDSLNRILGPVVDADGISRSIMTVKYSRKATPEQMQRFQENFKRSLMQFYGNALLEYNNQGITVDPAKADDGKRASVGMKVTGNNGAVYPVQYTLENIGGEWKVRNVIVNGINIGKLFRDQFADAMQRNGNDLDKTIDGWAGEVAKAKQAADNSPEKSVKLEHHHHHH	soluble
MREVLYRSDIYVFGRYPMSSFIGYPGLSSSSFCTHINFFYASSCTSTARVFRKKWREIFFVLARKNFTSRAKSKIFPRHVFRDMNKEIFRTQTI	not soluble
MADHAHNLRATFGHGRPIGVITRGTTGFNRLRRCDRWMAHHPLIQQALRRTSDPIALDVGYGASFTTTVEWARWLRTMRDDVRVTGLEIDPERVLPPRDGVTFELGGFELAGYQPTLVRAFNVLRQYDVDQVMDAWEMVTSRLQPGGFFVEGTCDELGRRSTWVLLNHAGPQSLTLCWDPFDVERPSDIAERLPKILIHRNVAGEKIHDVLLRTDEAWDRCAPWASYGPRVRWRAARAMLMDMGIPMSIIRRPVRDNQLTVPWSIVDPTT	not soluble
MGHHHHHHSHMAAAIASSLIRQKRQAREREKSNACKCVSSPSKGKTSCDKNKLNVFSRVKLFGSKKRRRRRPEPQLKGIVTKLYSRQGYHLQLQADGTIDGTKDEDSTYTLFNLIPVGLRVVAIQGVQTKLYLAMNSEGYLYTSELFTPECKFKESVFENYYVTYSSMIYRQQQSGRGWYLGLNKEGEIMKGNHVKKNKPAAHFLPKPLKVAMYKEPSLHDLTEFSRSGSGTPTKSRSVSGVLNGGKSMSHNEST	soluble
VPACTVSNTTVDWQDVEIQTLSQNGNHEKEFTVNMRCPYNLGTMKVTITATNTYNNAILVQNTSNTSSDGLLVYLYNSNAGNIGTAITLGTPFTPGKITGNNADKTISLHAKLGYKGNMQNLIAGPFSATATLVASYS	soluble
LFDRVLVAYDFSKWADRALEYAKFVVKKTGGELHIIHVSEDGDKTADLRVMEEVIGAEGIEVHVHIESGTPHKAILAKREEINATTIFMGSRGAGSVMTMILGSTSESVIRRSPVPVFVCKRGDDE	not soluble
MKIAIIGAGIGGLTAAALLQEQGHTIKVFEKNESVKEIGAGIGIGDNVLKKLGNHDLAKGIKNAGQILSTMTVLDDKDRLLTTVKLKSNTLNVTLPRQTLIDIIKSYVKDDVIFTNHEVTHIDNETDKVTIHFAEQESEAFDLCIGADGIHSKVRQSVNADSKVLYQGYTCFRGLIDDIDLKHPDCAKEYWGRKGRVGIVPLLNNQAYWFITINSKENNHKYSSFGKPHLQAYFNHYPNEVREILDKQSETGILLHNIYDLKPLKSFVYGRTILLGDAAHATTPNMGQGAGQAMEDAIVLVNCFNAYDFEKALQRYDKIRVKHTAKVIKRSRKIGKIAQYRSRLFVAVRNRIMKMMPNALAAGQTKFLYKSKEKLEHHHHHH	soluble
MKFLTVSDDMNFLRQVNTLVAGKGDMDSVIIGEGDAKGLGSKVLYRAKKGTPFDAVSEGILKIAGNYDYIAIGSTEVGREIAGYLSFKTGFYTATEIFSLEFNGQKAHTKRFFYGGKTVIEEESDARILTVAPGVIEAKDLGTTPEIRDLEIGQSRIKITKFVSKAGGSVRLEDAKVIVSVGRGIGSKENIAKIEPLAKALNGEIAGSRPVCMDYGWLSEDRQVGLSGKKVSPKVYIALGISGQIQHIAGMRNSKTVIAINKDKNAPIFQECDYGIVGDLFTVVPKILEQLKQ	not soluble
MASYSSILVLSVCTIGALAVMEHNSYYPGGHSTSYYQPFQTDTYGSKYYNTESYGKYDEHGNNGKDSHYEPNYYNPIASYYHSYMPKYHGGHNDYYTKYNQYTPYYGGSHQQNYYEQPKHDDYHGGDHHYDMHK	not soluble
SLIRSMTGFGSASKTQDDLSVSVELKSVNYRFKEVNARLPRPLLYFEDKLKQTILQHIQRGRIELFVSVDSDMLVEKRLEIDWPLLDEFVAAARDMKKRYQLSAEPDVMDFFKLDHVVQVHEEQTQNDKLEALIIDAAEEAVKGLCEMREKEGLLLAKDCLMHIDQLEELVRETELLAADVVSRYRERLYARIKEWTEDVLDESRLVTECAIFADRSDITEEITRLKSHFAQFRDILASGGAVGRKLDFLVQELNREANTIGSKANDHQITKLVVEMKSSIEKIKEQVQNIE	soluble
MPSTNLTKRDWEKDHVYLVQFPRAGCIPSPSPYAFKVETFLRVADIPYTNINNEFKKMSARGQIPFIELNGRQHADSTIIIDNLTEHFHKSDLEDLSASDKAIARAFFALLEHHLCWVSLYSRGQDFGWLATDTGFGRLLTGIKGFAFKNFIVKSFTKKVRGRAAAQGMGTFSREEVLDQAKKDLDAISTQLGDKPYLFGSSIKTIDVTAFAHLAELIYTPQFSPEIRAYIDEKVPNVMEYVIRIKEKYWPDWEETTNTMNMATVWKKA	not soluble
MKGGLLVDDEFIHGAARSLTVRKTSLFFAGDGFTVYDCKGSLVFRVDSYGGPNTRDTDEVVLMDAHGRCLLTLRRKRPSLRRRWEGYLGERSDGQKPIFGVRRSSIIGRNSVTVEVYGDYQCSEYLIEGSFGARNCTVVEAETRRKVAEIRRKVDASTNVMLGKDVFSLNVKPGFDGAFAMGLVLVLDQIYGDDLLEVGEEQVHPSAEDL	soluble
MSLIDWTRPLADRMRPRLLTEFVGQSHLLDAGKPLREVIEAGRPHSMVFWGPPGTGKTTLARLIAEATEAEFLALSAVMAGVKEIRQASATGQANRARGRQTILFVDEVHRFNKAQQDAFLPFIEDGTVVFIGATTENPSFELNNALLSRLRTYVLRPLGEAALARIIDCALEDSERGLGTKQLALSEQARSLLIQAADGDARSALSLLEVAADLSAAEARIDIDLIRAAAAGGRARFDKRGEAFYDEISALHKAVRGSAPDAALYWLCRMLAGGCDPLYLARRLLRMASEDIGNADPRGLQVALNAWQAQERLGSPEGELAIAQAVVYLASVPKSDAVYRAYRLAAEDVRSHGSLEVPLALRNAPTRLLRELGYGRGYRYAHDEPEGYAAGAEYFPAELIGTRYYHPADRGLERQIGERLRRLRELDRATEGHHHHHH	not soluble
MREYKLVVLGSGGVGKSALTVQFVQGIFVDEYDPTIEDSYRKQVEVDCQQCMLEILDTAGTEQFTAMRDLYMKNGQGFALVYSITAQSTFNDLQDLREQILRVKDTEDVPMILVGNKCDLEDERVVGKEQGQNLARQWCNCAFLESSAKSKINVNEIFYDLVRQINR	soluble
GSHMATPWSGYLDDVSAKFDTGVDNLQTQVTEALDKLAAKPSDPALLAAYQSKLSEYNLYRNAQSNTAKAFKDIDAAIIQNFR	soluble
MKRMLFIFVSSFLLIALAACAQGKETKSELDYDQTKKMIVDILKTDQGKKAIQDVLTDEKMKQALILDETVVKKTIEDAMVSDKGQQFWEKLFKDPEFSSKFAKSMGKEQTQLMKTLLKDPEYQAGVIEIMKNPEVEKMMLQTMKSKEYRQYLQQVLTETAESPLFQAKMIDIISKGVQKAEKGGSGKKEAGGDGGSQGEKKEEQ	not soluble
MATSAMFILDLKGKTIISRNYRGDIDMTAIDKFIHLLMEKEEEGSAAPVLTYQDTNFVFIKHTNIYLVSACRSNVNVTMILSFLYKCVEVFSEYFKDVEEESVRDNFVVIYELLDEMMDFGFPQTTESRILQEYITQEGQKLISAPRPPMAVTNAVSWRSEGIKYRKNEVFLDVIESVNMLASANGTVLQSEIVGSVKMRVYLTGMPELRLGLNDKVLFEGSGRGKSKSVELEDVKFHQCVRLSRFDTDRTISFIPPDGAFELMSYRLTTVVKPLIWIETSIERHSHSRVSFIIKAKSQFKRRSTANNVEIIIPVPSDADSPKFKTSIGSVKYTPEQSAFVWTIKNFPGGKEYLLTAHLSLPSVMSEESEGRPPIKVKFEIPYFTTSGIQVRYLKIIEKSGYQALPWVRYITQNGEYEMRMK	not soluble
